Percent of the glycoprotein in the Triton residue and percent of the protein in the Triton residue data for three substances are collected here from publication PMC2110644.

Read-outs that look alike come from different tables or passages of the source.

What all share (test): co-sedimentation
In test [1] the target is actin (mol wt = 43,000), platelet (human (endogenous in platelets)) (UniProt P60709).
Test [2] has the same target. This is another data set of the same source.
The target is the same in test [3]. The source holds these as a separate data set.
The target is the same in test [4]. The source holds these as a separate data set.

platelet membrane glycoprotein IIb (receptor), sequence (P08514 32-1039): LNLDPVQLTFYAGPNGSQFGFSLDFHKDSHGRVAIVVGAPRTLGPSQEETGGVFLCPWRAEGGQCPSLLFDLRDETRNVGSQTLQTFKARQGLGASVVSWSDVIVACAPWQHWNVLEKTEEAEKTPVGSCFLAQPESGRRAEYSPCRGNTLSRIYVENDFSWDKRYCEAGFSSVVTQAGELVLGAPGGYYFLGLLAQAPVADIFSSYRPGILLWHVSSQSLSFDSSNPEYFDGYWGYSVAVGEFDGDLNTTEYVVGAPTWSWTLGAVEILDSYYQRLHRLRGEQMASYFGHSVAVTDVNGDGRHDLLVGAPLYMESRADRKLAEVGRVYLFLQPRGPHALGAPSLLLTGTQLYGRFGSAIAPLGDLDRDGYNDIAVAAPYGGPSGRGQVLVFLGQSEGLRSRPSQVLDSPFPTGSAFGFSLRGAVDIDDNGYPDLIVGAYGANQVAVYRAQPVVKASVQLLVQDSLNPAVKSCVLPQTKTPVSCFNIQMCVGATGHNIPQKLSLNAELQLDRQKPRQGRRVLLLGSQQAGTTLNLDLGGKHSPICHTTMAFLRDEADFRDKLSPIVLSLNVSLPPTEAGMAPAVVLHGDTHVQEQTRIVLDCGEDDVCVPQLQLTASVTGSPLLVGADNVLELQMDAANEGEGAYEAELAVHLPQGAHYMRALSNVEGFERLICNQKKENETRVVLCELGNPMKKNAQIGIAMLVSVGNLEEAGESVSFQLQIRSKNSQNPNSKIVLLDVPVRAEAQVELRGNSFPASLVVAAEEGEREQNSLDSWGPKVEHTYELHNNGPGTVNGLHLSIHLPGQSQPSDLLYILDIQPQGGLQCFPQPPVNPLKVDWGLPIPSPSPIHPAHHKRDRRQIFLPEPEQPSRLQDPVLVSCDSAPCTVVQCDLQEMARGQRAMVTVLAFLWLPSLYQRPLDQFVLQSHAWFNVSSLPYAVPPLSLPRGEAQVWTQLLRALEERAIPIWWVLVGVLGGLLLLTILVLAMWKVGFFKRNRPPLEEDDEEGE
platelet membrane glycoprotein III, sequence (P05106 27-788): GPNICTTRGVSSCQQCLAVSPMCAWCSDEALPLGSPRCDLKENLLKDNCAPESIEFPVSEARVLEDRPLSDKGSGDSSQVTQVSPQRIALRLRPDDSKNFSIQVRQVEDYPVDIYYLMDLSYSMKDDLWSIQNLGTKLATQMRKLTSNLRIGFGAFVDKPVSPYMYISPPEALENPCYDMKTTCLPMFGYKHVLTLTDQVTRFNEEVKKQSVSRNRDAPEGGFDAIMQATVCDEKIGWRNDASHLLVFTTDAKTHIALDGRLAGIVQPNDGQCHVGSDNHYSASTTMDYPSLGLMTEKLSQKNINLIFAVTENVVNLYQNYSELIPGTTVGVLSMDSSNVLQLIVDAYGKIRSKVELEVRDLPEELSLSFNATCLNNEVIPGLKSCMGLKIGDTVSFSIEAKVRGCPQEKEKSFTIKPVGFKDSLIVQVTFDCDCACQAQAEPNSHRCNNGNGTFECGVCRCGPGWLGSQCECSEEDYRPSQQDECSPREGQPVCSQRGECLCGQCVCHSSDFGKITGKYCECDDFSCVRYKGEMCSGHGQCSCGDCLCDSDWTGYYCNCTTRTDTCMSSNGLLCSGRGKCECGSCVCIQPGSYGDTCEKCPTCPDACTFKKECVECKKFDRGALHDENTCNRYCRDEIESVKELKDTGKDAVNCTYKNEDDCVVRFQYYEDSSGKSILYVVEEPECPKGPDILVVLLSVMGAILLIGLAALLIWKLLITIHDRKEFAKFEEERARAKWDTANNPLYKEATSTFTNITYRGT

Consider “platelet membrane glycoprotein IIb (receptor)”, for which the percent of the glycoprotein in the Triton residue was 3.7% in test [1], 26.1% in test [2], 7.2% in test [3] and 5.4% in test [4].
As for “255,000 protein (actin-binding protein), platelet (from UniProt P21333 1-2647) (natural protein)”, the percent of the protein in the Triton residue in test [2] was 55.2%; in test [3], 34.5%.
Take “platelet membrane glycoprotein III (from UniProt P05106 27-788) (receptor)”: the percent of the glycoprotein in the Triton residue worked out at 14.3% in test [2], 3.4% in test [3] and 2.4% in test [4].
